Laboratory results from the supplement of paper PMC9112550, “Optimization of the antimicrobial peptide Bac7 by deep mutational scanning” (BMC Biology, 2022).

system: Escherichia coli TOP10; experiment: shrunken log2 fold change of peptide-encoding DNA abundance (4.5 h post-induction vs induction); higher = less antimicrobial activity (less host growth inhibition); conditions: time post-induction: 4.5 h; library: site-saturation at positions 5, 18, 19, 20
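Further: peptides expressed intracellularly from a pBAD plasmid library in pooled LB shake-flask culture, induced with 0.3% L-arabinose, DNA abundance read by NGS, three biological replicates, DESeq2 with apeglm shrinkage.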

First: RRIRFRPPRLPRPRPRPVQAPRP
Second: RRIRSRPPRLPRPRPRPEMAPRP
The “shrunken log2 fold change” value of the first is lower: 0.183 for the first, 1.22 for the second.

First: RRIRLRPPRLPRPRPRPAGIPRP
Second: RRIRCRPPRLPRPRPRPKIVPRP
The “shrunken log2 fold change” value of the first is higher: -0.043 for the first, -0.29 for the second.

Compared with RRIRTRPPRLPRPRPRPGKCPRP, RRIRLRPPRLPRPRPRPDCAPRP is higher in “shrunken log2 fold change” value: 0.0114 for the first, 0.239 for the second.

Going from RRIRFRPPRLPRPRPRPRSPPRP to RRIRARPPRLPRPRPRPCIEPRP, the “shrunken log2 fold change” value falls from 1.06 to 0.105.

RRIRVRPPRLPRPRPRPKMEPRP and RRIRTRPPRLPRPRPRPQYWPRP are within 0.2 log units of each other in “shrunken log2 fold change” value: -0.0457 for the first, -0.163 for the second.

First: RRIRERPPRLPRPRPRPIELPRP
Second: RRIRWRPPRLPRPRPRPVPWPRP
The “shrunken log2 fold change” value of the first is lower: -0.163 for the first, 0.374 for the second.

Going from RRIRGRPPRLPRPRPRPIACPRP to RRIRIRPPRLPRPRPRPWITPRP, the “shrunken log2 fold change” value falls from 0.526 to -0.917.

Compared with RRIRTRPPRLPRPRPRPVQCPRP, RRIRYRPPRLPRPRPRPNYRPRP is lower in “shrunken log2 fold change” value: 0.00249 for the first, -0.306 for the second.

Compared with RRIRVRPPRLPRPRPRPWLFPRP, RRIRTRPPRLPRPRPRPIQHPRP is lower in “shrunken log2 fold change” value: 0.141 for the first, -0.403 for the second.

Compared with RRIRKRPPRLPRPRPRPVPPPRP, RRIRQRPPRLPRPRPRPRNPPRP is lower in “shrunken log2 fold change” value: 1.85 for the first, 0.375 for the second.

RRIRERPPRLPRPRPRPAPVPRP and RRIRRRPPRLPRPRPRPFAQPRP are within 0.2 log units of each other in “shrunken log2 fold change” value: 0.055 for the first, 0.199 for the second.

RRIRIRPPRLPRPRPRPAWNPRP and RRIRTRPPRLPRPRPRPMCLPRP are within 0.2 log units of each other in “shrunken log2 fold change” value: 0.146 for the first, 0.0631 for the second.

RRIRQRPPRLPRPRPRPLNVPRP and RRIRHRPPRLPRPRPRPWWAPRP are within 0.2 log units of each other in “shrunken log2 fold change” value: -0.0218 for the first, -0.162 for the second.

RRIRWRPPRLPRPRPRPQDFPRP and RRIRFRPPRLPRPRPRPWVWPRP are within 0.2 log units of each other in “shrunken log2 fold change” value: 0.203 for the first, 0.212 for the second.

First: RRIRQRPPRLPRPRPRPTHLPRP
Second: RRIRIRPPRLPRPRPRPSPMPRP
The “shrunken log2 fold change” value of the first is higher: 0.205 for the first, -0.2 for the second.

RRIRRRPPRLPRPRPRPVHGPRP and RRIRGRPPRLPRPRPRPLHNPRP are within 0.2 log units of each other in “shrunken log2 fold change” value: 0.335 for the first, 0.249 for the second.

RRIRYRPPRLPRPRPRPWKEPRP and RRIRHRPPRLPRPRPRPIRCPRP are within 0.2 log units of each other in “shrunken log2 fold change” value: -0.0075 for the first, -0.115 for the second.

RRIRERPPRLPRPRPRPQQTPRP and RRIRERPPRLPRPRPRPQIEPRP are within 0.2 log units of each other in “shrunken log2 fold change” value: -0.0895 for the first, -0.208 for the second.

RRIRTRPPRLPRPRPRPSRCPRP and RRIRLRPPRLPRPRPRPRMIPRP are within 0.2 log units of each other in “shrunken log2 fold change” value: 0.061 for the first, 0.119 for the second.

Compared with RRIRGRPPRLPRPRPRPQTRPRP, RRIRWRPPRLPRPRPRPSAVPRP is lower in “shrunken log2 fold change” value: 1.12 for the first, 0.6 for the second.

RRIRTRPPRLPRPRPRPTTEPRP and RRIRSRPPRLPRPRPRPNRYPRP are within 0.2 log units of each other in “shrunken log2 fold change” value: -0.16 for the first, -0.296 for the second.

RRIRVRPPRLPRPRPRPKEWPRP and RRIRPRPPRLPRPRPRPLHDPRP are within 0.2 log units of each other in “shrunken log2 fold change” value: 0.146 for the first, -0.034 for the second.

Compared with RRIRRRPPRLPRPRPRPTMKPRP, RRIRCRPPRLPRPRPRPPHMPRP is higher in “shrunken log2 fold change” value: 0.286 for the first, 1.56 for the second.

First: RRIRERPPRLPRPRPRPTDPPRP
Second: RRIRYRPPRLPRPRPRPRFIPRP
The “shrunken log2 fold change” value of the first is higher: -0.152 for the first, -0.671 for the second.

Going from RRIRMRPPRLPRPRPRPVFDPRP to RRIRPRPPRLPRPRPRPSQDPRP, the “shrunken log2 fold change” value falls from 0.184 to -0.334.

RRIRYRPPRLPRPRPRPIDKPRP and RRIRMRPPRLPRPRPRPEQCPRP are within 0.2 log units of each other in “shrunken log2 fold change” value: -0.00865 for the first, -0.00138 for the second.

RRIRIRPPRLPRPRPRPMTAPRP and RRIRQRPPRLPRPRPRPWYGPRP are within 0.2 log units of each other in “shrunken log2 fold change” value: -0.2 for the first, -0.191 for the second.

RRIRTRPPRLPRPRPRPIFFPRP and RRIRGRPPRLPRPRPRPQGIPRP are within 0.2 log units of each other in “shrunken log2 fold change” value: 0.0107 for the first, -0.128 for the second.

Going from RRIRYRPPRLPRPRPRPPDEPRP to RRIRHRPPRLPRPRPRPDWMPRP, the “shrunken log2 fold change” value falls from 0.0398 to -0.222.

Going from RRIRRRPPRLPRPRPRPRIPPRP to RRIRIRPPRLPRPRPRPNTVPRP, the “shrunken log2 fold change” value falls from 0.209 to -1.09.

Going from RRIRCRPPRLPRPRPRPRLPPRP to RRIRCRPPRLPRPRPRPEGCPRP, the “shrunken log2 fold change” value rises from 0.382 to 3.02.

RRIRERPPRLPRPRPRPKKLPRP and RRIRTRPPRLPRPRPRPHFWPRP are within 0.2 log units of each other in “shrunken log2 fold change” value: -0.083 for the first, 0.0783 for the second.

Compared with RRIRLRPPRLPRPRPRPVFKPRP, RRIRDRPPRLPRPRPRPSATPRP is higher in “shrunken log2 fold change” value: -0.134 for the first, 0.515 for the second.

Compared with RRIRMRPPRLPRPRPRPRLWPRP, RRIRYRPPRLPRPRPRPHPWPRP is lower in “shrunken log2 fold change” value: 0.103 for the first, -0.542 for the second.

RRIRNRPPRLPRPRPRPQPWPRP and RRIRRRPPRLPRPRPRPWDAPRP are within 0.2 log units of each other in “shrunken log2 fold change” value: -0.00313 for the first, 0.143 for the second.

Going from RRIRVRPPRLPRPRPRPIMIPRP to RRIRFRPPRLPRPRPRPTAGPRP, the “shrunken log2 fold change” value rises from -1.08 to 0.0761.

RRIRTRPPRLPRPRPRPNEVPRP and RRIRYRPPRLPRPRPRPVHMPRP are within 0.2 log units of each other in “shrunken log2 fold change” value: 0.0231 for the first, -0.0179 for the second.

First: RRIRLRPPRLPRPRPRPWIIPRP
Second: RRIRMRPPRLPRPRPRPEYNPRP
The “shrunken log2 fold change” value of the first is lower: -0.631 for the first, 0.25 for the second.

RRIRDRPPRLPRPRPRPMNTPRP and RRIRQRPPRLPRPRPRPKFRPRP are within 0.2 log units of each other in “shrunken log2 fold change” value: -0.125 for the first, 0.0034 for the second.

Going from RRIRTRPPRLPRPRPRPCFEPRP to RRIRYRPPRLPRPRPRPIYIPRP, the “shrunken log2 fold change” value falls from -0.0858 to -0.673.

RRIRMRPPRLPRPRPRPWTQPRP and RRIRQRPPRLPRPRPRPLFAPRP are within 0.2 log units of each other in “shrunken log2 fold change” value: -0.0562 for the first, 0.013 for the second.

Going from RRIRRRPPRLPRPRPRPEQFPRP to RRIRMRPPRLPRPRPRPPAFPRP, the “shrunken log2 fold change” value rises from 0.212 to 0.82.

Going from RRIRKRPPRLPRPRPRPHTVPRP to RRIRYRPPRLPRPRPRPINHPRP, the “shrunken log2 fold change” value falls from -0.407 to -0.675.

Compared with RRIRIRPPRLPRPRPRPLEGPRP, RRIRVRPPRLPRPRPRPERAPRP is higher in “shrunken log2 fold change” value: -0.0524 for the first, 0.264 for the second.

Compared with RRIRDRPPRLPRPRPRPMYDPRP, RRIRRRPPRLPRPRPRPHVWPRP is higher in “shrunken log2 fold change” value: -0.208 for the first, 0.242 for the second.

RRIRVRPPRLPRPRPRPWKNPRP and RRIRHRPPRLPRPRPRPYPNPRP are within 0.2 log units of each other in “shrunken log2 fold change” value: 0.0224 for the first, -0.014 for the second.

RRIRGRPPRLPRPRPRPAMVPRP and RRIRLRPPRLPRPRPRPTAWPRP are within 0.2 log units of each other in “shrunken log2 fold change” value: 0.252 for the first, 0.222 for the second.

RRIRYRPPRLPRPRPRPPSHPRP and RRIRMRPPRLPRPRPRPCYYPRP are within 0.2 log units of each other in “shrunken log2 fold change” value: -0.383 for the first, -0.199 for the second.

RRIRRRPPRLPRPRPRPQFWPRP and RRIRSRPPRLPRPRPRPDTAPRP are within 0.2 log units of each other in “shrunken log2 fold change” value: 0.172 for the first, -0.0215 for the second.

RRIRNRPPRLPRPRPRPGHRPRP and RRIRPRPPRLPRPRPRPGQFPRP are within 0.2 log units of each other in “shrunken log2 fold change” value: 0.00909 for the first, -0.0723 for the second.

RRIRIRPPRLPRPRPRPDQKPRP and RRIRPRPPRLPRPRPRPRDNPRP are within 0.2 log units of each other in “shrunken log2 fold change” value: -0.0112 for the first, -0.104 for the second.

RRIRERPPRLPRPRPRPDWAPRP and RRIRNRPPRLPRPRPRPGMCPRP are within 0.2 log units of each other in “shrunken log2 fold change” value: 0.0306 for the first, -0.0316 for the second.

RRIRKRPPRLPRPRPRPSENPRP and RRIRRRPPRLPRPRPRPWVDPRP are within 0.2 log units of each other in “shrunken log2 fold change” value: 0.101 for the first, 0.0233 for the second.

Compared with RRIRGRPPRLPRPRPRPHWEPRP, RRIRKRPPRLPRPRPRPMYSPRP is lower in “shrunken log2 fold change” value: 0.324 for the first, -0.11 for the second.

For RRIRLRPPRLPRPRPRPCRDPRP, the “shrunken log2 fold change” value was -0.211.
